Results as given in US20140087995A1 (published 2014).
Each block holds one binder with its values, some of them ahead of it. Numbered stars: 1 amine (or outer) side, 2 acyl side, 3 side chain; on linkers, the order of the positions; unused ones are H or OH. Bridge positions count the residues as written; N and C are the ends. Side chains are listed from the residue outwards. Ends that are not written are not given here. * marks the point of attachment. C20 diacid = O=C(O)CCCCCCCCCCCCCCCCCCC(=O)*; C18 diacid = O=C(O)CCCCCCCCCCCCCCCCC(=O)*; C16 diacid = O=C(O)CCCCCCCCCCCCCCC(=O)*; γGlu = O=C(O)[C@H](CCC(=O)[*:2])N[*:1]; C14 diacid = O=C(O)CCCCCCCCCCCCC(=O)*

Key:
[1] = target: T1, human calcitonin receptor (human, UniProt P30988 25-474); assay: SPA radioligand competition (125I-calcitonin), membranes of BHK cells with human calcitonin receptor
T1 construct: whole, on cells; also called hCTR; hCT
T1 sequence (looked up): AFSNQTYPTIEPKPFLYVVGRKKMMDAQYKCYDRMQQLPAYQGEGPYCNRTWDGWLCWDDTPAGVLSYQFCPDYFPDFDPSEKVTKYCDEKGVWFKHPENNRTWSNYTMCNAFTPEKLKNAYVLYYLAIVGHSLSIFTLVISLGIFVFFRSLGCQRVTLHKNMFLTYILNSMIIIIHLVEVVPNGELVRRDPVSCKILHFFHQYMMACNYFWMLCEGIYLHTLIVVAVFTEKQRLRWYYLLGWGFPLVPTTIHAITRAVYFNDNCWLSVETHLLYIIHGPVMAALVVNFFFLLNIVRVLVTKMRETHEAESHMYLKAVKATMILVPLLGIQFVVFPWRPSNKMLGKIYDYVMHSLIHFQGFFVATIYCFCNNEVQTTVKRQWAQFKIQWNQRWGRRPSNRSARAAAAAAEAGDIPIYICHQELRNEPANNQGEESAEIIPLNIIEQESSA
Method in brief: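 BHK hCTR membranes 35 ng/μL + SPA beads 0.05 mg/well; buffer 50 mM Hepes pH 7.4, 1 mM CaCl2, 5 mM MgCl₂, 0.1% OA, 0.02% Tween20. 120 min, 25° C., shaking. Scintillation count; IC50 by one-site binding competition.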

[2] = target: T1, human calcitonin receptor; assay: ratio of IC50 at human calcitonin receptor to IC50 at human amylin receptor (SPA competition assays)
Method in brief: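 Competition binding by SPA with cell membranes (35 ng/μL) and SPA beads in 50 mM Hepes pH 7.4 with 1 mM CaCl2, 5 mM MgCl2, 0.1% OA and 0.02% Tween20. Incubated 120 min at 25 °C with shaking, then counted.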

[3] = target: T2, human calcitonin receptor (human, UniProt P30988 25-474); assay: SPA competition vs 125I-calcitonin, membranes of BHK cells with human calcitonin receptor (Assay VII)
T2 construct: whole, on cells; Assayed as cell membranes of BHK tk'ts 13 cells stably transfected with the human calcitonin receptor (Assay VII); also called hCTR; hCT
T2 sequence (looked up): T1 sequence (looked up)
Experimental: Membranes were prepared in the following way; the cells were rinsed with PBS and incubated with Versene for approximately 5 min before harvesting. The cells were flushed with PBS and the cell-suspension was centrifuged for 5 min at 1000 rpm. Cells were homogenized (Ultrathurrax) in a buffer containing 20 mM Na-HEPES and 10 mM EDTA (pH 7.4) and centrifuged at 20.000 rpm for 15 min. The resulting pellet was resuspended, homogenized and centrifuged (20.000 rpm, 15 min) in a buffer containing 20 mM Na-HEPES and 0.1 mM EDTA (pH 7.4, buffer 2). The resulting pellet was resuspended in buffer 2 and protein concentration was measured (BCA protein Assay, Pierce). The homogenate was kept cold during the whole procedure. The membranes were kept at −80° C. until use. Assay was performed in a 384 well Optiplate (PerkinElmer) in a total volume of 40 ul. Membranes were mixed with SPA beads. Final concentration of membranes 35 ng/μL final and Final concentration of SPA beads was 0.05 mg/well. Test-compounds were dissolved in DMSO and further diluted in assay buffer (50 mM Hepes, pH 7.4, 1 mM CaCl2, 5 mM MgCl₂, 0.1% OA and 0.02% Tween20). […] The final mixture was incubated for 120 min with shaking at 400 rpm at 25° C. prior to centrifugation (1500 rpm, 10 min). Samples were analyzed on TopCounter™ (Packard). The […] was calculated using (one site binding competition analysis) GraphPad Prism5 as a measure of receptor affinity.

B1: N^ε1-[(4S)-4-carboxy-4-(15-carboxypentadecanoylamino)butanoyl]-[Arg17,Pro21,Pro27,His34]-h-amylin (peptide)
peptide: K([γGlu-C16 diacid])CNTATCATQRLANFLRHSSPNFGAIPSSTNVGHNTY-NH2
modifications: disulfide 2-7; N-terminus assumed
SMILES: CC[C@H](C)[C@H](NC(=O)[C@H](C)NC(=O)CNC(=O)[C@H](Cc1ccccc1)NC(=O)[C@H](CC(N)=O)NC(=O)[C@@H]1CCCN1C(=O)[C@H](CO)NC(=O)[C@H](CO)NC(=O)[C@H](Cc1c[nH]cn1)NC(=O)[C@H](CCCNC(=N)N)NC(=O)[C@H](CC(C)C)NC(=O)[C@H](Cc1ccccc1)NC(=O)[C@H](CC(N)=O)NC(=O)[C@H](C)NC(=O)[C@H](CC(C)C)NC(=O)[C@H](CCCNC(=N)N)NC(=O)[C@H](CCC(N)=O)NC(=O)[C@@H](NC(=O)[C@H](C)NC(=O)[C@@H]1CSSC[C@H](NC(=O)[C@@H](N)CCCCNC(=O)CC[C@H](NC(=O)CCCCCCCCCCCCCCC(=O)O)C(=O)O)C(=O)N[C@@H](CC(N)=O)C(=O)N[C@@H]([C@@H](C)O)C(=O)N[C@@H](C)C(=O)N[C@@H]([C@@H](C)O)C(=O)N1)[C@@H](C)O)C(=O)N1CCC[C@H]1C(=O)N[C@@H](CO)C(=O)N[C@@H](CO)C(=O)N[C@H](C(=O)N[C@@H](CC(N)=O)C(=O)N[C@H](C(=O)NCC(=O)N[C@@H](Cc1c[nH]cn1)C(=O)N[C@@H](CC(N)=O)C(=O)N[C@H](C(=O)N[C@@H](Cc1ccc(O)cc1)C(N)=O)[C@@H](C)O)C(C)C)[C@@H](C)O
- IC50 [1]: 10.8 nM
- Ratio hCT/hAmylin binding [2]: 18.5

B2: N^ε1-[(4S)-4-carboxy-4-(17-carboxyheptadecanoylamino)butanoyl]-[Arg17,Pro21,Pro27,His34]-h-amylin (peptide)
peptide: K([γGlu-C18 diacid])CNTATCATQRLANFLRHSSPNFGAIPSSTNVGHNTY-NH2
modifications: disulfide 2-7; N-terminus assumed
SMILES: CC[C@H](C)[C@H](NC(=O)[C@H](C)NC(=O)CNC(=O)[C@H](Cc1ccccc1)NC(=O)[C@H](CC(N)=O)NC(=O)[C@@H]1CCCN1C(=O)[C@H](CO)NC(=O)[C@H](CO)NC(=O)[C@H](Cc1c[nH]cn1)NC(=O)[C@H](CCCNC(=N)N)NC(=O)[C@H](CC(C)C)NC(=O)[C@H](Cc1ccccc1)NC(=O)[C@H](CC(N)=O)NC(=O)[C@H](C)NC(=O)[C@H](CC(C)C)NC(=O)[C@H](CCCNC(=N)N)NC(=O)[C@H](CCC(N)=O)NC(=O)[C@@H](NC(=O)[C@H](C)NC(=O)[C@@H]1CSSC[C@H](NC(=O)[C@@H](N)CCCCNC(=O)CC[C@H](NC(=O)CCCCCCCCCCCCCCCCC(=O)O)C(=O)O)C(=O)N[C@@H](CC(N)=O)C(=O)N[C@@H]([C@@H](C)O)C(=O)N[C@@H](C)C(=O)N[C@@H]([C@@H](C)O)C(=O)N1)[C@@H](C)O)C(=O)N1CCC[C@H]1C(=O)N[C@@H](CO)C(=O)N[C@@H](CO)C(=O)N[C@H](C(=O)N[C@@H](CC(N)=O)C(=O)N[C@H](C(=O)NCC(=O)N[C@@H](Cc1c[nH]cn1)C(=O)N[C@@H](CC(N)=O)C(=O)N[C@H](C(=O)N[C@@H](Cc1ccc(O)cc1)C(N)=O)[C@@H](C)O)C(C)C)[C@@H](C)O
- IC50 [1]: 22.7 nM
- Ratio hCT/hAmylin binding [2]: 59.4

Second part, the binder after the results:

- IC50 [1]: 24.3 nM
- Ratio hCT/hAmylin binding [2]: 23.5
B3: N^ε1-[(4S)-4-carboxy-4-(13-carboxytridecanoylamino)butanoyl]-[Arg17,Pro21,Pro27,His34]-h-amylin (peptide)
peptide: K([γGlu-C14 diacid])CNTATCATQRLANFLRHSSPNFGAIPSSTNVGHNTY-NH2
modifications: disulfide 2-7; N-terminus assumed
SMILES: CC[C@H](C)[C@H](NC(=O)[C@H](C)NC(=O)CNC(=O)[C@H](Cc1ccccc1)NC(=O)[C@H](CC(N)=O)NC(=O)[C@@H]1CCCN1C(=O)[C@H](CO)NC(=O)[C@H](CO)NC(=O)[C@H](Cc1c[nH]cn1)NC(=O)[C@H](CCCNC(=N)N)NC(=O)[C@H](CC(C)C)NC(=O)[C@H](Cc1ccccc1)NC(=O)[C@H](CC(N)=O)NC(=O)[C@H](C)NC(=O)[C@H](CC(C)C)NC(=O)[C@H](CCCNC(=N)N)NC(=O)[C@H](CCC(N)=O)NC(=O)[C@@H](NC(=O)[C@H](C)NC(=O)[C@@H]1CSSC[C@H](NC(=O)[C@@H](N)CCCCNC(=O)CC[C@H](NC(=O)CCCCCCCCCCCCC(=O)O)C(=O)O)C(=O)N[C@@H](CC(N)=O)C(=O)N[C@@H]([C@@H](C)O)C(=O)N[C@@H](C)C(=O)N[C@@H]([C@@H](C)O)C(=O)N1)[C@@H](C)O)C(=O)N1CCC[C@H]1C(=O)N[C@@H](CO)C(=O)N[C@@H](CO)C(=O)N[C@H](C(=O)N[C@@H](CC(N)=O)C(=O)N[C@H](C(=O)NCC(=O)N[C@@H](Cc1c[nH]cn1)C(=O)N[C@@H](CC(N)=O)C(=O)N[C@H](C(=O)N[C@@H](Cc1ccc(O)cc1)C(N)=O)[C@@H](C)O)C(C)C)[C@@H](C)O

- IC50 [3]: 56.9 nM
B4: N^ε1-[(4S)-4-carboxy-4-[[(4S)-4-carboxy-4-(19-carboxynonadecanoylamino)butanoyl]amino]butanoyl]-[Asp14,Arg17,Pro21,Pro27,Arg35]-h-amylin (peptide)
peptide: K([γGlu-γGlu-C20 diacid])CNTATCATQRLADFLRHSSPNFGAIPSSTNVGSRTY-NH2
modifications: disulfide 2-7; N-terminus assumed
SMILES: CC[C@H](C)[C@H](NC(=O)[C@H](C)NC(=O)CNC(=O)[C@H](Cc1ccccc1)NC(=O)[C@H](CC(N)=O)NC(=O)[C@@H]1CCCN1C(=O)[C@H](CO)NC(=O)[C@H](CO)NC(=O)[C@H](Cc1c[nH]cn1)NC(=O)[C@H](CCCNC(=N)N)NC(=O)[C@H](CC(C)C)NC(=O)[C@H](Cc1ccccc1)NC(=O)[C@H](CC(=O)O)NC(=O)[C@H](C)NC(=O)[C@H](CC(C)C)NC(=O)[C@H](CCCNC(=N)N)NC(=O)[C@H](CCC(N)=O)NC(=O)[C@@H](NC(=O)[C@H](C)NC(=O)[C@@H]1CSSC[C@H](NC(=O)[C@@H](N)CCCCNC(=O)CC[C@H](NC(=O)CC[C@H](NC(=O)CCCCCCCCCCCCCCCCCCC(=O)O)C(=O)O)C(=O)O)C(=O)N[C@@H](CC(N)=O)C(=O)N[C@@H]([C@@H](C)O)C(=O)N[C@@H](C)C(=O)N[C@@H]([C@@H](C)O)C(=O)N1)[C@@H](C)O)C(=O)N1CCC[C@H]1C(=O)N[C@@H](CO)C(=O)N[C@@H](CO)C(=O)N[C@H](C(=O)N[C@@H](CC(N)=O)C(=O)N[C@H](C(=O)NCC(=O)N[C@@H](CO)C(=O)N[C@@H](CCCNC(=N)N)C(=O)N[C@H](C(=O)N[C@@H](Cc1ccc(O)cc1)C(N)=O)[C@@H](C)O)C(C)C)[C@@H](C)O
notes: also called compound 52
